Reference: doi:10.1101/2021.02.03.429574 (bioRxiv, 2021)

B1: plastocyanin (Pisum sativum), reduced (natural protein, Pisum sativum (pea), UniProt P16002 70-168, looked up)
chain: VEVLLGASDGGLAFVPSSLEVSAGETIVFKNNAGFPHNVVFDEDEIPAGVDASKISMPEEDLLNAPGETYSVKLDAKGTYKFYCSPHQGAGMVGQVTVN
B2: plastocyanin used with Chlamydomonas reinhardtii PSI (natural protein, UniProt P18068 48-145, looked up)
chain: DATVKLGADSGALEFVPKTLTIKSGETVNFVNNAGFPHNIVFDEDAIPSGVNADAISRDDYLNAPGETYSVKLTAAGEYGYYCEPHQGAGMVGKIIVQ

How the values were obtained:
[1] = biological target: PsaA (Pisum sativum photosystem I) (Pisum sativum (pea), UniProt P05310 16-758); experiment: cryo-EM structure
[2] = biological target: PsaB (Pisum sativum photosystem I) (Pisum sativum (pea), UniProt P05311 13-734); experiment: cryo-EM structure
[3] = biological target: photosystem I of Chlamydomonas reinhardtii, wild type (Chlamydomonas reinhardtii, UniProt P12154 1-751; P09144 1-735; P12356 63-227); experiment: flash-induced absorbance transients at 817 nm

PsaA (Pisum sativum photosystem I), sequence (P05310 16-758): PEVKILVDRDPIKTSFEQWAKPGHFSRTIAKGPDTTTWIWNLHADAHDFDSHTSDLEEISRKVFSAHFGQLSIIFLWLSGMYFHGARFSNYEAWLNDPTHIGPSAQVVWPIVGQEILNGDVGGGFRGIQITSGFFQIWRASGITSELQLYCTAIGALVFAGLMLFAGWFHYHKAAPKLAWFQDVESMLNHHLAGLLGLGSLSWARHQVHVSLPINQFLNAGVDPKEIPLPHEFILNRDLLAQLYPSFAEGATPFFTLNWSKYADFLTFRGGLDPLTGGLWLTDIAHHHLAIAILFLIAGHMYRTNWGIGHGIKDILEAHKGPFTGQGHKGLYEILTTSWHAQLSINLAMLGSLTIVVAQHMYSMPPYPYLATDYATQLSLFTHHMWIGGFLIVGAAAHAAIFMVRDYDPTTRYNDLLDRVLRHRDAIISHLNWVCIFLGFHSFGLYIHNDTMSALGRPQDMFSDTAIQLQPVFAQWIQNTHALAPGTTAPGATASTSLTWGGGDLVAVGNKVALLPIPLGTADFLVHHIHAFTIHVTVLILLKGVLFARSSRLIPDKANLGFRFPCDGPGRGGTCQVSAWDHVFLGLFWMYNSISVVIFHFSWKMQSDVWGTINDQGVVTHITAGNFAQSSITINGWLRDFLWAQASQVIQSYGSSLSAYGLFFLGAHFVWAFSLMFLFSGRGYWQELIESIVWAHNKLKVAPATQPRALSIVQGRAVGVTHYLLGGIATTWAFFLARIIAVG
PsaB (Pisum sativum photosystem I), sequence (P05311 13-734): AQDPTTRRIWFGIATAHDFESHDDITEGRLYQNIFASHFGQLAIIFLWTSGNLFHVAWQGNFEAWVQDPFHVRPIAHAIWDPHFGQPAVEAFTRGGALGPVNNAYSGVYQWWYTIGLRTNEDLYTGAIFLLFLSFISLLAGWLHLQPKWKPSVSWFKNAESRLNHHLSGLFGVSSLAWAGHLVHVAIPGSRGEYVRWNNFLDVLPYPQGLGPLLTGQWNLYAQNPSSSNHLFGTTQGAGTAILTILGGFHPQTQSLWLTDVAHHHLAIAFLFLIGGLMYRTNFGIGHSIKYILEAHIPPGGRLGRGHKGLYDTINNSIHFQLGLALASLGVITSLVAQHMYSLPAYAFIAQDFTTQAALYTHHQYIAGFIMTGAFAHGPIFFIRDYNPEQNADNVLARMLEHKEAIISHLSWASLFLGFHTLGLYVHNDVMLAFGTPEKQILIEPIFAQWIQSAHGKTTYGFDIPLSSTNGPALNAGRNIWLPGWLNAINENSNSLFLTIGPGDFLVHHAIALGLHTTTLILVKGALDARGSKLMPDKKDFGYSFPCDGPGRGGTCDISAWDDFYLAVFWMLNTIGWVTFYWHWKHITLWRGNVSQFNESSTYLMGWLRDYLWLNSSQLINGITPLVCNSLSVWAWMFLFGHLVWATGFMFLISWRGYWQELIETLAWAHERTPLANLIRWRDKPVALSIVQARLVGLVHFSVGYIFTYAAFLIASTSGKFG

Row | Binder | binding result [1] | binding result [2] | Kd [3] [µM]
1 | B1 | binds | binds | –
2 | B2 | – | – | 88
